In the FLAb antibody collection (doi:10.7554/elife.23156) one finds Kd and yeast surface expression data, which are given here for 57 variants.

B1: scFv; the commonest letter at each place (parent)
chain 1: EVKLDETGGGLVQPGRPMKLSCVASGFTFSDYWMNWVRQSPEKGLEWVAQIRNKPYNYETYYSDSVKGRFTISRDDSKSSVYLQMNNLRVEDMGIYYCTGSYYGMDYWGQGTSVTVS
chain 2: DVVMTQTPLSLPVSLGDQASISCRSSQSLVHSNGNTYLRWYLQKPGQSPKVLIYKVSNRFSGVPDRFSGSGSGTDFTLKISRVEAEDLGVYFCSQSTHVPWTFGGGTKLEIK

The series “fluorescein” covers variants of B1. In words: Kd (Tite-Seq). To be noted: with fluorescein; format: scFv 4-4-20, heavy + light.
Variants of B1 are the subject of series [1]. In words: yeast surface expression (ratio to wild type); higher = more expressed. To be noted: format: scFv 4-4-20, heavy + light.

A word on the Kd: it is the free concentration of one partner at which half of the binding sites on the other are occupied at equilibrium, for simple one-to-one binding. In the case of chain 1 W33Q W36T, the Kd with fluorescein was no less than 10 µM. The yeast surface expression in series [1] was determined as 0.706.

Consider chain 1 W33Q W36V, for which the dissociation constant (Kd) with fluorescein is no less than 10 µM. Also, in series [1], the yeast surface expression came out at 0.361.

Regarding chain 1 W33Q W36S, the Kd in the series with fluorescein came out at 7.33 µM. In addition, the yeast surface expression in series [1] is 0.839.

With chain 1 W33Q W36K, the Kd with fluorescein is no less than 10 µM. Also, the yeast surface expression in series [1] worked out at 0.466.

chain 1 W33G V37L: the dissociation constant (Kd) with fluorescein was no less than 10 µM. The yeast surface expression in series [1] came out at 0.49.

As to chain 1 W33G V37Y, the dissociation constant (Kd) in the series with fluorescein is no less than 10 µM. Besides, in series [1], the yeast surface expression was 0.672.

For chain 1 W36K V37N, the Kd with fluorescein was 0.0592 µM. In addition, the yeast surface expression in series [1] is 0.168.

Consider chain 1 W36K V37H, for which, in the series with fluorescein, the dissociation constant (Kd) was no less than 10 µM. The yeast surface expression in series [1] was determined as 0.773.

On to chain 1 T28W F29R, for which the Kd with fluorescein is no less than 10 µM. The yeast surface expression in series [1] stood at 0.615.

Regarding chain 1 T28W F29M, the equilibrium dissociation constant (Kd) with fluorescein stood at 0.0139 µM. The yeast surface expression in series [1] amounted to 0.897.

With chain 1 W33K M34T, the dissociation constant Kd with fluorescein is no less than 10 µM. Further, the yeast surface expression in series [1] is 0.893.

On to chain 1 W33T W36Y, for which, in the series with fluorescein, the Kd is no less than 10 µM. The yeast surface expression in series [1] was determined as 0.79.

For the variant chain 1 W108E G109V, the Kd with fluorescein was no less than 10 µM. Further, the yeast surface expression in series [1] was determined as 0.33.

For chain 1 W108E G109K, in the series with fluorescein, the Kd is no less than 10 µM. Moreover, in series [1], the yeast surface expression was determined as 0.403.

Take chain 1 W108E G109P: the Kd with fluorescein was no less than 10 µM. In addition, the yeast surface expression in series [1] is 0.356.

Regarding chain 1 W108E G109T, the Kd with fluorescein was no less than 10 µM. Besides, in series [1], the yeast surface expression was determined as 0.269.

chain 1 W33A W36H: the dissociation constant (Kd) in the series with fluorescein is no less than 10 µM. Moreover, the yeast surface expression in series [1] was found to be 0.549.

As for chain 1 T28V S30D, the Kd with fluorescein worked out at 0.000454 µM. Also, the yeast surface expression in series [1] amounted to 0.917.

chain 1 T28V S30Q: in the series with fluorescein, the Kd is 0.000989 µM. In addition, the yeast surface expression in series [1] was 1.1.

On to chain 1 W33Y M34I, for which the Kd with fluorescein was no less than 10 µM. For the same variant, the yeast surface expression in series [1] worked out at 0.771.

Take chain 1 T28V W36H: in the series with fluorescein, the dissociation constant (Kd) is no less than 10 µM. For the same variant, in series [1], the yeast surface expression came out at 0.619.

On to chain 1 T28Y N35S, for which the dissociation constant (Kd) with fluorescein was no less than 10 µM. In series [1], the yeast surface expression was determined as 0.691.

Turning to chain 1 T28Y N35E, in the series with fluorescein, the equilibrium dissociation constant (Kd) is no less than 10 µM. Besides, the yeast surface expression in series [1] was determined as 0.319.

As for chain 1 T28Y N35Y, the dissociation constant (Kd) with fluorescein was no less than 10 µM. Further, the yeast surface expression in series [1] was 0.86.

Turning to chain 1 W33C M34K, the Kd with fluorescein was no less than 10 µM. Further, the yeast surface expression in series [1] is 0.774.

Turning to chain 1 W33C M34Q, the dissociation constant (Kd) with fluorescein was no less than 10 µM. Besides, the yeast surface expression in series [1] is 0.755.

On to chain 1 W33I V37S, for which, in the series with fluorescein, the dissociation constant (Kd) is no less than 10 µM. Moreover, the yeast surface expression in series [1] was 0.617.

For chain 1 W33V V37S, the equilibrium dissociation constant (Kd) in the series with fluorescein was no less than 10 µM. Further, the yeast surface expression in series [1] was found to be 0.535.

For chain 1 W33V V37F, the Kd with fluorescein was no less than 10 µM. The yeast surface expression in series [1] was determined as 0.82.

With chain 1 W33M W36P, in the series with fluorescein, the Kd was no less than 10 µM. The yeast surface expression in series [1] is 0.591.

In the case of chain 1 W33E N35G, the Kd with fluorescein was no less than 10 µM. Moreover, the yeast surface expression in series [1] came out at 1.05.

With chain 1 W33E N35R, the Kd with fluorescein is no less than 10 µM. Also, the yeast surface expression in series [1] was determined as 0.588.

Turning to chain 1 W33E N35C, the dissociation constant Kd with fluorescein was no less than 10 µM. Also, the yeast surface expression in series [1] came to 0.797.

On to chain 1 W33E N35K, for which, in the series with fluorescein, the equilibrium dissociation constant (Kd) is no less than 10 µM. Also, the yeast surface expression in series [1] was 0.455.

With chain 1 W33T N35D V37W, the Kd with fluorescein was no less than 10 µM. In addition, in series [1], the yeast surface expression worked out at 0.582.

As to chain 1 T28V M34Y, in the series with fluorescein, the equilibrium dissociation constant (Kd) was found to be 0.00966 µM. In series [1], the yeast surface expression came to 0.889.

chain 1 T28V M34S: the dissociation constant Kd with fluorescein was found to be 0.0353 µM. Besides, the yeast surface expression in series [1] stood at 0.593.

chain 1 W33K W36Y: the equilibrium dissociation constant (Kd) with fluorescein is no less than 10 µM. Besides, in series [1], the yeast surface expression came out at 0.396.

As for chain 1 W33N V37Q, the Kd in the series with fluorescein is no less than 10 µM. The yeast surface expression in series [1] came to 0.415.

As to chain 1 W33N V37N, in the series with fluorescein, the dissociation constant Kd is no less than 10 µM. Moreover, the yeast surface expression in series [1] was 0.652.

Consider chain 1 T28Y S30L, for which the dissociation constant (Kd) in the series with fluorescein was 0.00708 µM. Moreover, in series [1], the yeast surface expression turned out to be 0.792.

Take chain 1 T28Y S30P: in the series with fluorescein, the Kd is 0.000804 µM. In series [1], the yeast surface expression was 1.08.

As for chain 1 W36Q V37T, in the series with fluorescein, the Kd is no less than 10 µM. Besides, the yeast surface expression in series [1] was determined as 0.396.

Consider chain 1 W33D W36M, for which, in the series with fluorescein, the equilibrium dissociation constant (Kd) was no less than 10 µM. The yeast surface expression in series [1] was 0.165.

As to chain 1 W33E V37T, in the series with fluorescein, the Kd is no less than 10 µM. In addition, in series [1], the yeast surface expression is 0.486.

chain 1 W33E V37Y: in the series with fluorescein, the Kd was no less than 10 µM. Further, the yeast surface expression in series [1] came out at 1.

For the variant chain 1 W33E V37C, in the series with fluorescein, the Kd is no less than 10 µM. The yeast surface expression in series [1] is 0.709.

For chain 1 W33E V37L, the dissociation constant Kd with fluorescein was no less than 10 µM. Moreover, the yeast surface expression in series [1] was 0.674.

Regarding chain 1 W36P V37Y, the equilibrium dissociation constant (Kd) with fluorescein is no less than 10 µM. Besides, the yeast surface expression in series [1] worked out at 0.75.

Take chain 1 T28V Y32S V37F: the Kd in the series with fluorescein is no less than 10 µM. Moreover, the yeast surface expression in series [1] turned out to be 0.818.

On to chain 1 W33H M34R V37T, for which the dissociation constant (Kd) in the series with fluorescein was no less than 10 µM. Also, the yeast surface expression in series [1] is 0.786.

Consider chain 1 W33T M34W, for which the equilibrium dissociation constant (Kd) with fluorescein was no less than 10 µM. Besides, in series [1], the yeast surface expression came out at 0.967.

As to chain 1 W33C W36G, the Kd with fluorescein was no less than 10 µM. For the same variant, the yeast surface expression in series [1] was 1.12.

As for chain 1 W108C G109E, in the series with fluorescein, the equilibrium dissociation constant (Kd) was no less than 10 µM. Moreover, the yeast surface expression in series [1] came out at 0.262.

As for chain 1 W33S N35I, in the series with fluorescein, the Kd was no less than 10 µM. The yeast surface expression in series [1] came to 0.495.

Consider chain 1 T28Y F29T W33T, for which, in the series with fluorescein, the Kd was no less than 10 µM. Further, the yeast surface expression in series [1] turned out to be 0.745.

As for chain 1 W33A N35S W36M, in the series with fluorescein, the Kd is no less than 10 µM. In addition, the yeast surface expression in series [1] was 0.823.
